Experiments:
[1] = molecular target: T1, KstD2 (Rhodococcus ruber, UniProt I0B6I6); assay: DCPIP reduction at […] nm, cell-free extract, Michaelis-Menten fit; settings: read-out: KstD2 / Km; 80 µM DCPIP as electron acceptor, 50 mM Tris pH 7, 30 °C
T1 sequence (I0B6I6 1-564): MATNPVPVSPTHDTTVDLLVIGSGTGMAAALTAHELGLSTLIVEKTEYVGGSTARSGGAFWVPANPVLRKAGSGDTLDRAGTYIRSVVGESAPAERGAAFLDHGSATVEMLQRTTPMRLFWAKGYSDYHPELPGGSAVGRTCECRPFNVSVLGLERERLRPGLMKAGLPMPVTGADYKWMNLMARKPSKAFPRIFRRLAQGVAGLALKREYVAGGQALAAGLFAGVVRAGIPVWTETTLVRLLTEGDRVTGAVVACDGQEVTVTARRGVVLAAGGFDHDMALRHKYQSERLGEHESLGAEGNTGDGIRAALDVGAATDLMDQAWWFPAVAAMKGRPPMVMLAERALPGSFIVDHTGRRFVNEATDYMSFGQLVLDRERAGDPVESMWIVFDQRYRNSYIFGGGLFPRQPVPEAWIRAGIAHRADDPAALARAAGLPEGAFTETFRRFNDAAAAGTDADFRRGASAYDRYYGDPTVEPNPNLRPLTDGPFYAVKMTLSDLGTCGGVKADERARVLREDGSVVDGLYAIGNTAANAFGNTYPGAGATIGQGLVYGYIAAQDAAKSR

[2] = molecular target: T2, KstD1 (Rhodococcus ruber, UniProt I0B6J0); assay: as above; settings: read-out: KstD1 / Km; 80 µM DCPIP as electron acceptor, 50 mM Tris pH 7, 30 °C
T2 sequence (I0B6J0 1-511): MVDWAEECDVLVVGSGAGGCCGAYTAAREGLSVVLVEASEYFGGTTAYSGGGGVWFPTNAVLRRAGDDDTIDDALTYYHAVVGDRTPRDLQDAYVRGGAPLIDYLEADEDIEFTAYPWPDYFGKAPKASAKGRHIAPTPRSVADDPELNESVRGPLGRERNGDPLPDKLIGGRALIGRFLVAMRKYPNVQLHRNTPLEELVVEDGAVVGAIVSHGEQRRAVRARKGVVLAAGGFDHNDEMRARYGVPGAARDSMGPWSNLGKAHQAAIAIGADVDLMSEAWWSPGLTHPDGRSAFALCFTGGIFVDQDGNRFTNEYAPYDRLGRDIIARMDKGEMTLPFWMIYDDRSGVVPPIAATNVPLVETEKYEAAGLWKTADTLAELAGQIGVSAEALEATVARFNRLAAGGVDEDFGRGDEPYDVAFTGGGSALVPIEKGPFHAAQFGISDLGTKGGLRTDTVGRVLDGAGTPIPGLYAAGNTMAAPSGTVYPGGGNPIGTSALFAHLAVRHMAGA

[3] = substrate: CC(=O)[C@H]1CC[C@H]2[C@@H]3CCC4=CC(=O)CC[C@]4(C)[C@H]3CC[C@]12C; assay: cells, lysate or membranes; settings: 80 µM DCPIP as electron acceptor, 50 mM Tris pH 7, 30 °C
[4] = substrate: C[C@]12CCC(=O)C[C@@H]1CC[C@@H]1[C@@H]2CC[C@]2(C)[C@@H](O)CC[C@@H]12; assay: cells, lysate or membranes
[5] = substrate: C[C@]12CC[C@H]3[C@@H](CCC4=CC(=O)CC[C@@]43C)[C@@H]1CC[C@@H]2C(=O)CO; assay: cells, lysate or membranes; settings: 80 µM DCPIP as electron acceptor, 50 mM Tris pH 7, 30 °C
[6] = substrate: C[C@H](C(=O)O)[C@H]1CC[C@H]2[C@@H]3CCC4=CC(=O)CC[C@]4(C)[C@H]3CC[C@]12C; assay: cells, lysate or membranes; settings: 80 µM DCPIP as electron acceptor, 50 mM Tris pH 7, 30 °C
[7] = substrate: C[C@]12CCC(=O)C=C1CC[C@@H]1[C@@H]2CC[C@]2(C)C(=O)CC[C@@H]12; assay: cells, lysate or membranes; settings: pH 7.0; 30.0 °C
[8] = substrate: C[C@]12CC[C@H]3[C@@H](CCC4=CC(=O)CC[C@@]43C)[C@@H]1CC[C@@H]2O; assay: cells, lysate or membranes; settings: pH 7.0; 30.0 °C
[9] = substrate: C[C@]12C[C@H](O)[C@H]3[C@@H](CCC4=CC(=O)CC[C@@]43C)[C@@H]1CC[C@@H]2C(=O)CO; assay: cells, lysate or membranes; settings: 80 µM DCPIP as electron acceptor, 50 mM Tris pH 7, 30 °C
[10] = substrate: [H][C@@]12CCC3=CC(=O)CC[C@]3(CO)[C@@]1([H])CC[C@]1(C)C(=O)CC[C@@]21[H]; assay: cells, lysate or membranes; settings: pH 7.0; 30.0 °C

Molecule: C[C@]12CCC(=O)C=C1CC[C@H]1[C@@H]3CCC(=O)[C@@]3(C)CC[C@@]12O [9OHAD, 9α-hydroxy-4-androstene-3,17-dione]
- Km [1]: 543 ± 77.8 µM
- Km [2]: 22.1 ± 7 µM

B1: KstD3 (Rhodococcus ruber) (protein)
chain: MIKQEYDIVVVGSGAGGMTAALTAAHRGASVVLVEKAPHYGGSSARSGGGVWIPNNEVLGAAGVTDTPEAARTYLHSIIGDVVPAGKIDTYIDRGPEMLSFVLEHSALELQWVPGYSDYYPEAPGGRLGGRSVEPKPFDGKRLGDDLALLEPDYVKGPPNFVITQADYKWLNLLMRNPRGPVRAAKVGVRYLWARARRRHLLVRGQALMAGLRMGLRDAGVPLLLNTALTDLVVEDGVVRGVRVESDGQQRTVRARRGVVIASGGFEHNEQMRTQYQRAPIGTEWTVGAKANTGDGIRAGQSLGAAVDFMDDAWWGPSFPLTGGPWFALSERSLPGSMMVNAAGRRFVNESAPYVEAVHAMYGGRHGRGDGPGENIPCWMILDQRYRNRYTFAGITPRSPFPKRWLKAGVVVRAGSIAELAGKIGVPAAALTATVERFNGFARAGRDEDFGRGESGYDHYYGDPRNKPNPSLGVIDKAPFYAIKVVPGDLGTKGGLRTDADARVLREDGTVIEGLYAAGNASGPVMGHTYAGPGATIGPAMTFAYLAVLDALARPEQPAVPPVSETVEQH
- Km [3]: 43.6 ± 2.9 µM
- Km ([4]; 80 µM DCPIP as electron acceptor, 50 mM Tris pH 7, 30 °C): 181.1 ± 42.6 µM
- Km [5]: 111.3 ± 4.0 µM

B2: KstD2 (Rhodococcus ruber) (protein)
chain: MATNPVPVSPTHDTTVDLLVIGSGTGMAAALTAHELGLSTLIVEKTEYVGGSTARSGGAFWVPANPVLRKAGSGDTLDRAGTYIRSVVGESAPAERGAAFLDHGSATVEMLQRTTPMRLFWAKGYSDYHPELPGGSAVGRTCECRPFNVSVLGLERERLRPGLMKAGLPMPVTGADYKWMNLMARKPSKAFPRIFRRLAQGVAGLALKREYVAGGQALAAGLFAGVVRAGIPVWTETTLVRLLTEGDRVTGAVVACDGQEVTVTARRGVVLAAGGFDHDMALRHKYQSERLGEHESLGAEGNTGDGIRAALDVGAATDLMDQAWWFPAVAAMKGRPPMVMLAERALPGSFIVDHTGRRFVNEATDYMSFGQLVLDRERAGDPVESMWIVFDQRYRNSYIFGGGLFPRQPVPEAWIRAGIAHRADDPAALARAAGLPEGAFTETFRRFNDAAAAGTDADFRRGASAYDRYYGDPTVEPNPNLRPLTDGPFYAVKMTLSDLGTCGGVKADERARVLREDGSVVDGLYAIGNTAANAFGNTYPGAGATIGQGLVYGYIAAQDAAKSR
- Km [3]: 33.8 ± 4.9 µM
- Km [6]: 38.2 ± 6.6 µM
- Km [7]: 40.1 ± 8.7 µM
- Km ([4]; pH 7.0, 30.0 °C): 24.57 ± 7.8 µM
- Km [5]: 42.5 ± 5.8 µM
- Km [8]: 107.9 ± 18.5 µM
- Km [9]: 374.3 ± 74.5 µM
- Km [10]: 347.4 ± 41.7 µM

B3: KstD1 (Rhodococcus ruber) (protein)
chain: MVDWAEECDVLVVGSGAGGCCGAYTAAREGLSVVLVEASEYFGGTTAYSGGGGVWFPTNAVLRRAGDDDTIDDALTYYHAVVGDRTPRDLQDAYVRGGAPLIDYLEADEDIEFTAYPWPDYFGKAPKASAKGRHIAPTPRSVADDPELNESVRGPLGRERNGDPLPDKLIGGRALIGRFLVAMRKYPNVQLHRNTPLEELVVEDGAVVGAIVSHGEQRRAVRARKGVVLAAGGFDHNDEMRARYGVPGAARDSMGPWSNLGKAHQAAIAIGADVDLMSEAWWSPGLTHPDGRSAFALCFTGGIFVDQDGNRFTNEYAPYDRLGRDIIARMDKGEMTLPFWMIYDDRSGVVPPIAATNVPLVETEKYEAAGLWKTADTLAELAGQIGVSAEALEATVARFNRLAAGGVDEDFGRGDEPYDVAFTGGGSALVPIEKGPFHAAQFGISDLGTKGGLRTDTVGRVLDGAGTPIPGLYAAGNTMAAPSGTVYPGGGNPIGTSALFAHLAVRHMAGA
- Km [3]: 27.9 ± 9.5 µM
- Km [6]: 76.1 ± 15.7 µM
- Km [7]: 34.2 ± 3.8 µM
- Km [5]: 21.6 ± 4.5 µM
- Km [8]: 28.8 ± 7.4 µM
- Km [9]: 161.6 ± 7.6 µM
- Km [10]: 368.8 ± 102.4 µM

— paper PMC5348764, “Functional differentiation of 3-ketosteroid Δ^1-dehydrogenase isozymes in Rhodococcus ruber strain Chol-4” (Microbial Cell Factories, 2017)
